Experimental findings from FireProtDB (doi:10.1016/j.jmb.2004.06.079) are described below.

B1: Malate dehydrogenase, P80040 (parent)
chain: MRKKISIIGAGFVGSTTAHWLAAKELGDIVLLDFVEGVPQGKALDLYEASPIEGFDVRVTGTNNYADTANSDVIVVTSGAPRKPGMSREDLIKVNADITRACISQAAPLSPNAVIIMVNNPLDAMTYLAAEVSGFPKERVIGQAGVLDAARYRTFIAMEAGVSVEDVQAMLMGGHGDEMVPLPRFSTISGIPVSEFIAPDRLAQIVERTRKGGGEIVNLLKTGSAYYAPAAATAQMVEAVLKDKKRVMPVAAYLTGQYGLNDIYFGVPVILGAGGVEKILELPLNEEEMALLNASAKAVRATLDTLKSL

In the data set the parent is B1. The conditions noted are these: Chloroflexus aurantiacus (strain ATCC 29366 / DSM 635 / J-10-fl), Thermal, CD, structure 1GUY, whole UniProt chain shown.
[1] abbreviates: pH 7.5, potassium phosphate 10 mM.
The mark [2] stands for this setting: pH 6, potassium phosphate 10 mM.

Usually Tm stands for the temperature at which the thermal transition is half complete. With E165Q, for the setting “pH 4.4, sodium acetate 10 mM”, the midpoint of thermal melting (Tm) was 85.8 °C and the “change of melting temperature, mutant - wild type (higher = more stable)” value (shortened to “change of melting temperature, mutant”) came to 5.4 °C. Besides, under setting [1], the Tm came out at 91.4 °C and the “change of melting temperature, mutant” value is 23.6 °C.

As to E165K, the Tm by setting is: (pH 4.4, sodium acetate 10 mM) 85 °C; under setting [2], 91.4 °C; under setting [1], 91.7 °C. The “change of melting temperature, mutant” value (pH 4.4, sodium acetate 10 mM) is 4.6 °C; the “change of melting temperature, mutant” value under setting [2] turned out to be 12 °C; the “change of melting temperature, mutant” value under setting [1] was 23.9 °C.
